The values below come from patent publication US12679878B2, “CRF2 receptor agonists and their use in therapy” (SANOFI, priority 2020, dated 2026).

Starred links: 1 amine or outer side, 2 acyl side, 3 side chain; linkers in the order of their positions; H or OH if unused. Non-standard residues stand in square brackets, D forms with d. Groups on a side chain read outwards from the residue. No end group written: not given here. *: point of attachment. C18 diacid = O=C(O)CCCCCCCCCCCCCCCCC(=O)*; γGlu = O=C(O)[C@H](CCC(=O)[*:2])N[*:1]; AEEA = NCCOCCOCC(=O)O; Aib = CC(C)(N)C(=O)O

For the assay, the target named is human corticotropin-releasing factor 2α (CRF2 α receptor) (human), Q13324. Description: cell-based or functional assay.
human corticotropin-releasing factor 2α (CRF2 α receptor) (human), Q13324, sequence (Q13324 20-411): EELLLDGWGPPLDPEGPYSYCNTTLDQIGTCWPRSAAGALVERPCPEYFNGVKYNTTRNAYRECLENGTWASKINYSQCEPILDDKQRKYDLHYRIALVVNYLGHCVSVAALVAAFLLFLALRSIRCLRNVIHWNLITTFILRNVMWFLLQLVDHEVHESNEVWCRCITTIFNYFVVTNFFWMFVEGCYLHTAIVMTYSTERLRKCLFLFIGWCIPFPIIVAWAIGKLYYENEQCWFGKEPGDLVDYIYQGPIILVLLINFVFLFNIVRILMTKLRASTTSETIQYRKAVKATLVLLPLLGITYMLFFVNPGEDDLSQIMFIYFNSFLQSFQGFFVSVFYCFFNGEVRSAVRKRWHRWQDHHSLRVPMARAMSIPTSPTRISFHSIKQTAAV

B1: SEQ ID NO: 39 (peptide)
peptide: IVLSLDVPIKLK([AEEA-AEEA-γGlu-C18 diacid])QILLEQERQRKERQQAETNAQILAQV-NH2
modifications: N-terminus assumed
SMILES: CC[C@H](C)[C@H](N)C(=O)N[C@H](C(=O)N[C@@H](CC(C)C)C(=O)N[C@@H](CO)C(=O)N[C@@H](CC(C)C)C(=O)N[C@@H](CC(=O)O)C(=O)N[C@H](C(=O)N1CCC[C@H]1C(=O)N[C@H](C(=O)N[C@@H](CCCCN)C(=O)N[C@@H](CC(C)C)C(=O)N[C@@H](CCCCNC(=O)COCCOCCNC(=O)COCCOCCNC(=O)CC[C@H](NC(=O)CCCCCCCCCCCCCCCCC(=O)O)C(=O)O)C(=O)N[C@@H](CCC(N)=O)C(=O)N[C@H](C(=O)N[C@@H](CC(C)C)C(=O)N[C@@H](CC(C)C)C(=O)N[C@@H](CCC(=O)O)C(=O)N[C@@H](CCC(N)=O)C(=O)N[C@@H](CCC(=O)O)C(=O)N[C@@H](CCCNC(=N)N)C(=O)N[C@@H](CCC(N)=O)C(=O)N[C@@H](CCCNC(=N)N)C(=O)N[C@@H](CCCCN)C(=O)N[C@@H](CCC(=O)O)C(=O)N[C@@H](CCCNC(=N)N)C(=O)N[C@@H](CCC(N)=O)C(=O)N[C@@H](CCC(N)=O)C(=O)N[C@@H](C)C(=O)N[C@@H](CCC(=O)O)C(=O)N[C@H](C(=O)N[C@@H](CC(N)=O)C(=O)N[C@@H](C)C(=O)N[C@@H](CCC(N)=O)C(=O)N[C@H](C(=O)N[C@@H](CC(C)C)C(=O)N[C@@H](C)C(=O)N[C@@H](CCC(N)=O)C(=O)N[C@H](C(N)=O)C(C)C)[C@@H](C)CC)[C@@H](C)O)[C@@H](C)CC)[C@@H](C)CC)C(C)C)C(C)C
Molecule B1 showed an EC50 [nM], 0% HSA of 0.65 nM.

B2: SEQ ID NO: 38 (peptide)
peptide: IVLSLDVPTKLK([AEEA-AEEA-γGlu-C18 diacid])QKLLKQERQR[Aib]ERQQAETNKRILERV-NH2
modifications: N-terminus assumed
SMILES: CC[C@H](C)[C@H](N)C(=O)N[C@H](C(=O)N[C@@H](CC(C)C)C(=O)N[C@@H](CO)C(=O)N[C@@H](CC(C)C)C(=O)N[C@@H](CC(=O)O)C(=O)N[C@H](C(=O)N1CCC[C@H]1C(=O)N[C@H](C(=O)N[C@@H](CCCCN)C(=O)N[C@@H](CC(C)C)C(=O)N[C@@H](CCCCNC(=O)COCCOCCNC(=O)COCCOCCNC(=O)CC[C@H](NC(=O)CCCCCCCCCCCCCCCCC(=O)O)C(=O)O)C(=O)N[C@@H](CCC(N)=O)C(=O)N[C@@H](CCCCN)C(=O)N[C@@H](CC(C)C)C(=O)N[C@@H](CC(C)C)C(=O)N[C@@H](CCCCN)C(=O)N[C@@H](CCC(N)=O)C(=O)N[C@@H](CCC(=O)O)C(=O)N[C@@H](CCCNC(=N)N)C(=O)N[C@@H](CCC(N)=O)C(=O)N[C@@H](CCCNC(=N)N)C(=O)NC(C)(C)C(=O)N[C@@H](CCC(=O)O)C(=O)N[C@@H](CCCNC(=N)N)C(=O)N[C@@H](CCC(N)=O)C(=O)N[C@@H](CCC(N)=O)C(=O)N[C@@H](C)C(=O)N[C@@H](CCC(=O)O)C(=O)N[C@H](C(=O)N[C@@H](CC(N)=O)C(=O)N[C@@H](CCCCN)C(=O)N[C@@H](CCCNC(=N)N)C(=O)N[C@H](C(=O)N[C@@H](CC(C)C)C(=O)N[C@@H](CCC(=O)O)C(=O)N[C@@H](CCCNC(=N)N)C(=O)N[C@H](C(N)=O)C(C)C)[C@@H](C)CC)[C@@H](C)O)[C@@H](C)O)C(C)C)C(C)C
For B2, the EC50 [nM], 0% HSA was determined as 20.9 nM.
